Source: US20200377604

B1: knob Fc F241S/F243R (protein)
chain: DKTHTSPPSPAPELLGGPSVSLRPPKPKDTLMISRTPEVTCVVVDVSHEDPEVKFNWYVDGVEVHNAKTKPREEQYNSTYRVVSVLTVLHQDWLNGKEYKCKVSNKALPAPIEKTISKAKGQPREPQVYTLPPSREEMTKNQVSLWCLVKGFYPSDIAVEWESNGQPENNYKTTPPVLDSDGSFFLYSKLTVDKSRWQQGNVFSCSVMHEALHNHYTQKSLSLSPGK
B2: knob Fc F241R/F243S (protein)
chain: DKTHTSPPSPAPELLGGPSVRLSPPKPKDTLMISRTPEVTCVVVDVSHEDPEVKFNWYVDGVEVHNAKTKPREEQYNSTYRVVSVLTVLHQDWLNGKEYKCKVSNKALPAPIEKTISKAKGQPREPQVYTLPPSREEMTKNQVSLWCLVKGFYPSDIAVEWESNGQPENNYKTTPPVLDSDGSFFLYSKLTVDKSRWQQGNVFSCSVMHEALHNHYTQKSLSLSPGK

Experiments:
[1] = gel filtration of the Fc, mAU at 280 nm against time; low, broad peak at 19.477 min
[2] = gel filtration of the Fc, mAU at 280 nm against time; low, broad peak at 19.455 min

Row | Protein | Area of the small peak ahead of the monomer peak (dimer position; not labelled Dimer on the sheet) [1] | Area of the small peak ahead of the monomer peak (dimer position; not labelled Dimer on the sheet) [2]
1 | B1 | Area: 1943.99 | 
2 | B2 |  | Area: 3287.62
